According to patent US20180155451A1 (published 2018):

B1: GpH7-A5/GpH7-B3 variant A327_14T/GpL16-k0 (antibody, human IgG1, kappa)
heavy 1: not shown
heavy 2: not shown
light: DIVMTQSPLSLPVTPGEPASISCQASESLVHSNRNTYLHWYLQKPGQSPQLLIYKVSNRFSGVPDRFSGSGSGTDFTLKISRVEAEDVGVYYCSQNTHVPPTFGQGTKVEIERTVAAPSVFIFPPSDEQLKSGTASVVCLLNNFYPREAKVQWKVDNALQSGNSQESVTEQDSKDSTYSLSSTLTLSKADYEKHKVYACEVTHQGLSSPVTKSFNRGEC
notes: Heterodimerized IgG1; alteration in one H chain only; also called He Ab
B2: GpH7-A5/GpH7-B3 variant A327_10E/GpL16-k0 (antibody, human IgG1, kappa)
heavy 1: not shown
heavy 2: not shown
light: B1 light
notes: as for B1
B3: GpH7-A5/GpH7-B3 variant A327_18N/GpL16-k0 (antibody, human IgG1, kappa)
heavy 1: not shown
heavy 2: not shown
light: B1 light
notes: as for B1
B4: GpH7-A5/GpH7-B3 variant S298_05P/GpL16-k0 (antibody, human IgG1, kappa)
heavy 1: not shown
heavy 2: not shown
light: B1 light
notes: as for B1
B5: GpH7-A5/GpH7-B3 variant S239_07I/GpL16-k0 (antibody, human IgG1, kappa)
heavy 1: not shown
heavy 2: not shown
light: B1 light
notes: Heterodimerized IgG1; mutation in the GpH7-B3 H chain only; also called He Ab
B6: heterodimerized antibody GpH7-A5/GpH7-B3 variant Y300_19Q/GpL16-k0 (antibody, human IgG1, kappa)
heavy 1: not shown
heavy 2: not shown
light: B1 light
notes: He Ab: anti-glypican-3 IgG1, alteration in one H chain only; also called He Ab
B7: heterodimerized antibody GpH7-A5/GpH7-B3 variant L328_19Q/GpL16-k0 (antibody, human IgG1, kappa)
heavy 1: not shown
heavy 2: not shown
light: B1 light
notes: as for B6
B8: heterodimerized antibody GpH7-A5/GpH7-B3 variant I332_02A/GpL16-k0 (antibody, human IgG1, kappa)
heavy 1: not shown
heavy 2: not shown
light: B1 light
notes: as for B6
B9: heterodimerized antibody GpH7-A5/GpH7-B3 variant S239_03V/GpL16-k0 (antibody, human IgG1, kappa)
heavy 1: not shown
heavy 2: not shown
light: B1 light
notes: as for B6
B10: heterodimerized antibody GpH7-A5/GpH7-B3 variant A327_01G/GpL16-k0 (antibody, human IgG1, kappa)
heavy 1: not shown
heavy 2: not shown
light: B1 light
notes: as for B6
B11: heterodimerized antibody GpH7-A5/GpH7-B3 variant S267_11K/GpL16-k0 (antibody, human IgG1, kappa)
heavy 1: not shown
heavy 2: not shown
light: B1 light
notes: as for B6
B12: heterodimerized antibody GpH7-A5/GpH7-B3 variant V266_11K/GpL16-k0 (antibody, human IgG1, kappa)
heavy 1: not shown
heavy 2: not shown
light: B1 light
notes: as for B6
B13: heterodimerized antibody GpH7-A5/GpH7-B3 variant S267_12R/GpL16-k0 (antibody, human IgG1, kappa)
heavy 1: not shown
heavy 2: not shown
light: B1 light
notes: as for B6
B14: heterodimerized antibody GpH7-A5/GpH7-B3 variant V266_05P/GpL16-k0 (antibody, human IgG1, kappa)
heavy 1: not shown
heavy 2: not shown
light: B1 light
notes: as for B6

molecular target: T1, FcγRIIIa extracellular domain with C-terminal His tag (human, UniProt P08637 17-208); assay: SPR (Biacore); He/Con_3a divided by He/Con_2b (reference: binding to FcγRIIb)
T1 construct: extracellular domain; also called FcgRIIIa; 3a; not shown: His tag attached to the C terminus
Procedure: (§1) Analysis of interaction between objective antibody and the FcγR was carried out using Biacore T100 (GE Healthcare). HBS-EP+ (GE Healthcare) was used as the running buffer, and the measurement temperature was set to 25° C. Chips produced by immobilizing the antigen peptide by the amine coupling method to a Series S Sencor Chip CM5 (GE Healthcare), or alternatively, chips produced by allowing preliminarily biotinylated antigen peptides to interact with and immobilize onto a Series S Sensor Chip SA (certified) (GE Healthcare) were used. Antibodies of interest were captured onto an antigen peptide-immobilized chip, and allowed to interact to each FcγR diluted with running buffer. To regenerate and repeatedly use the chip, the antibodies captured on the chip were washed off by reacting 10 mM glycine-HCl, pH 1.5.
(§2) The FcγR-binding activity of each antibody was assessed primarily using as an indicator the FcγR-binding activity and dissociation constant for FcγR.

T1 sequence (P08637 17-208): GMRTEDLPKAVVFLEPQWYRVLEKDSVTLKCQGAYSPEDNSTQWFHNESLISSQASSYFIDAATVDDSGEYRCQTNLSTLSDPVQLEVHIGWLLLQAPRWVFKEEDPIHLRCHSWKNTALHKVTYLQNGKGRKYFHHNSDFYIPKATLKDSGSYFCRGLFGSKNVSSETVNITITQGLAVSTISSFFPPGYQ

He_3a/2b (IIIa/IIb) | Binder
0.46 ratio | B1
0.49 ratio | B2
0.54 ratio | B3

molecular target: T1, FcγRIIIa extracellular domain with …; assay: SPR (Biacore), relative binding
Procedure: as §1, §2

He/Con_3a (IIIa binding) | Binder
41.4 % of GpH7-A5/GpH7-B3/GpL16-k0 (=100) | B1
68.6 % of GpH7-A5/GpH7-B3/GpL16-k0 (=100) | B2
61.1 % of GpH7-A5/GpH7-B3/GpL16-k0 (=100) | B3

molecular target: T2, FcγRIIb extracellular domain with C-terminal His tag (human, UniProt P31994 43-217); assay: SPR (Biacore), relative binding
T2 construct: extracellular domain; also called FcgRIIb; 2b; not shown: His tag attached to the C terminus
T2 sequence (looked up): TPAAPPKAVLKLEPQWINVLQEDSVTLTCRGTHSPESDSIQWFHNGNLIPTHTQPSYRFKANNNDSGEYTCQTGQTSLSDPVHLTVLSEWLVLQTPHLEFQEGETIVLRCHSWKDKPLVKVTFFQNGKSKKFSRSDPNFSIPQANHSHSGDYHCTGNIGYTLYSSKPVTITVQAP
Procedure: as §1, §2

He/Con_2b (IIb binding) | Binder
11.9 % of GpH7-A5/GpH7-B3/GpL16-k0 (=100) | B4
89.4 % of GpH7-A5/GpH7-B3/GpL16-k0 (=100) | B1
140 % of GpH7-A5/GpH7-B3/GpL16-k0 (=100) | B2
113 % of GpH7-A5/GpH7-B3/GpL16-k0 (=100) | B3

molecular target: T3, FcγRIIb (human, UniProt P31994 43-217); assay: SPR (Biacore), antibody captured on antigen peptide, FcγR as analyte; relative to GpH7-A5/GpH7-B3/GpL16-k0 = 100
T3 construct: extracellular domain; Soluble extracellular domain with C-terminal His tag, used as analyte in Biacore; also called FcgRIIb; 2b; not shown: His tag attached to the C terminus
T3 sequence (looked up): T2 sequence (looked up)

He/Con_2b | Binder
107 % of control | B5

molecular target: T4, FcγRIa (human, UniProt P12314 16-292); assay: as above
T4 construct: extracellular domain; Soluble extracellular domain with C-terminal His tag, used as analyte in Biacore; also called FcgRI; 1a; not shown: His tag attached to the C terminus
T4 sequence (P12314 16-292): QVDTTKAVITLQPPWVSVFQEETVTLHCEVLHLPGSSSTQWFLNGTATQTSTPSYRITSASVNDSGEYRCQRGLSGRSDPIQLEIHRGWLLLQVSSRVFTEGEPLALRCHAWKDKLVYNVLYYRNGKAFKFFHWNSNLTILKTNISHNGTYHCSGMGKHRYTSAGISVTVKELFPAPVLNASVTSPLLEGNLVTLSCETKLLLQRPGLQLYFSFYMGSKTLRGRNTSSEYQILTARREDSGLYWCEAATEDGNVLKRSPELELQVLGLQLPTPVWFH

He/Con_1a | Binder
97.8 % of control | B5

molecular target: T5, FcγRIIa R (FcγRIIa, allotype R, Arg at position 131), extracellular domain with C-terminal His tag (human, UniProt P12318 34-217); assay: Biacore SPR; binding relative to GpH7-A5/GpH7-B3/GpL16-k0 (=100)
T5 construct: extracellular domain; soluble receptor used as Biacore analyte; also called 2aR; FcgRIIa R
T5 sequence (looked up): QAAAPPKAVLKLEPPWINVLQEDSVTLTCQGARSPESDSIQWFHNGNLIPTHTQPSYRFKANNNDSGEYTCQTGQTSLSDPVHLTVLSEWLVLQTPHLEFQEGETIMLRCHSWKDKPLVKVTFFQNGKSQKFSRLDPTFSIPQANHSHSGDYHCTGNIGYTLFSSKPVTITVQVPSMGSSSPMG
Procedure: (§3) The heterodimerized antibodies He Abs in which one of the H chains was introduced with an alteration were assayed for their binding activities to each activating FcγR and inhibitory FcγR according to the method described in Example 4. […] The activating FcγRs in FIGS. 26, 27, 28, and 29 are FcγRIa, FcγRIIa (R), FcγRIIa (H), and FcγRIIIa, respectively.
as §1

He/Con_2aR (IIaR binding) | Binder
99.7 % of control | B6
89.3 % of control | B7
97.6 % of control | B8
99.9 % of control | B9
98.2 % of control | B10

molecular target: T6, FcγRIIb, extracellular domain with C-terminal His tag (human, UniProt P31994 43-217); assay: as above
T6 construct: extracellular domain; soluble receptor used as Biacore analyte; also called 2b; FcgRIIb
T6 sequence (looked up): T2 sequence (looked up)
Procedure: as §3, §1

He/Con_2b (IIb binding) | Binder
108 % of control | B6
105 % of control | B7
103 % of control | B8
12.2 % of control | B11
1 % of control | B12
11.3 % of control | B13
108 % of control | B9
0.4 % of control | B14
116 % of control | B10
